“And” between values parts separate entries of the source, which are not always exact repeats. Equal entries are not always repeated.
B1: Tpz1^475–508-Poz1 complex (complex, S. pombe)
chain 1: NSEACEMCRLGLPHGSFFELLRDWKKIEEFRNKS
chain 2: MNEKIRSQSVLNTLETFFIKENHYDMQREESSIVNACLRYLGYSKSMCHEKMPIFMDIAFIEYCFNLSLDPSSFQNLPITQTQPDSQQILWEYSLISNALERLENIELERQNCMREDGLVKYTNELLLNKETLNNEALKLYSCAKAGICRWMAFHFLEQEPIDHINFTKFLQDWGSHNEKEMEALQRLSKHKIRKRLIYVSQHKKKMPWSKFNSVLSRYIQCTKLQLEVFCDYDFKQREIVKMLTSNIN
B3: Poz1 (full length) (natural protein, S. pombe, UniProt O13852 1-249, looked up)
chain: MNEKIRSQSVLNTLETFFIKENHYDMQREESSIVNACLRYLGYSKSMCHEKMPIFMDIAFIEYCFNLSLDPSSFQNLPITQTQPDSQQILWEYSLISNALERLENIELERQNCMREDGLVKYTNELLLNKETLNNEALKLYSCAKAGICRWMAFHFLEQEPIDHINFTKFLQDWGSHNEKEMEALQRLSKHKIRKRLIYVSQHKKKMPWSKFNSVLSRYIQCTKLQLEVFCDYDFKQREIVKMLTSNIN
B6: Biotin-SUMO-tagged Rap1^446-512 (domain or fragment, S. pombe, UniProt Q96TL7 446-512, looked up)
chain: EKTLRETSFRSLDDMSLRKSNSDNIFVKPGEDLEIPLLSDYSDSENISEKSSDDEEAFEKQVTSSYS
modifications: also: SUMO tag fused, biotin on Avi tag

Columns and labels:
[1] = molecular target: B6; test: BLI
[2] = molecular target: B3; test: pull-down
[3] = molecular target: B1; test: pull-down
[4] = molecular target: B3; test: ITC
[5] = molecular target: T1, Tpz1-Poz1ΔN complex (S. pombe, UniProt O14246 475-508; O13852 29-249); test: ITC
T1 sequence (looked up) 1: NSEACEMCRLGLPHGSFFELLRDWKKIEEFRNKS
T1 sequence (looked up) 2: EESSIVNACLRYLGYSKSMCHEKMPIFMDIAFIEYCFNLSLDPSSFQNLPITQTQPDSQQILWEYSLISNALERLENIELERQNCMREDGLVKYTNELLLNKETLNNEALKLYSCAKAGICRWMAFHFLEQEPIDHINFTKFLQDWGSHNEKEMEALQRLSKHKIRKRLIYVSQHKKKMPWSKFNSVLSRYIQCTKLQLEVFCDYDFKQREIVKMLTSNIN

[6] = molecular target: B1; test: ITC
[7] = molecular target: B3; test: crystal structure
[8] = molecular target: T2, Poz1ΔN (Poz1^29-249) (S. pombe, UniProt O13852 29-249); test: BLI
T2 sequence (looked up): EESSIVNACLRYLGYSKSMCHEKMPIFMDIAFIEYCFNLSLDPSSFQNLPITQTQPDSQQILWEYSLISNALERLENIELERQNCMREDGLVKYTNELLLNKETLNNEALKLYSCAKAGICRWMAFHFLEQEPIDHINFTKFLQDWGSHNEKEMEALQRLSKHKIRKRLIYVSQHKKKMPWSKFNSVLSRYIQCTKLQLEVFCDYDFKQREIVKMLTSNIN

[9] = molecular target: T3, Poz1^L14R-Tpz1^475–508 (S. pombe, UniProt O14246 475-508; O13852 1-249, L14R); test: BLI
T3 sequence (looked up) 1: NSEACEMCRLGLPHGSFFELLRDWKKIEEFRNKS
T3 sequence (looked up) 2: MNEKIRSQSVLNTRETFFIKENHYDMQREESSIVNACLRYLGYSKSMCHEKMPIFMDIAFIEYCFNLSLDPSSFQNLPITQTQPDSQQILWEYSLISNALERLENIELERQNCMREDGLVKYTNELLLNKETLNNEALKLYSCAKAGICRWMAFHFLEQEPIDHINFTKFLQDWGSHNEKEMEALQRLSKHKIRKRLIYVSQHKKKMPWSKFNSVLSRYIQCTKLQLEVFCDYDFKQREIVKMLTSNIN

[10] = molecular target: T4, Rap1^467–496 (S. pombe, UniProt Q96TL7 467-496); test: crystal structure
T4 chain (looked up): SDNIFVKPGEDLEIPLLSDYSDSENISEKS

[11] = molecular target: T5, Tpz1 (full length, in S. pombe) (S. pombe, UniProt O14246 1-508); test: co-IP
T5 sequence (looked up): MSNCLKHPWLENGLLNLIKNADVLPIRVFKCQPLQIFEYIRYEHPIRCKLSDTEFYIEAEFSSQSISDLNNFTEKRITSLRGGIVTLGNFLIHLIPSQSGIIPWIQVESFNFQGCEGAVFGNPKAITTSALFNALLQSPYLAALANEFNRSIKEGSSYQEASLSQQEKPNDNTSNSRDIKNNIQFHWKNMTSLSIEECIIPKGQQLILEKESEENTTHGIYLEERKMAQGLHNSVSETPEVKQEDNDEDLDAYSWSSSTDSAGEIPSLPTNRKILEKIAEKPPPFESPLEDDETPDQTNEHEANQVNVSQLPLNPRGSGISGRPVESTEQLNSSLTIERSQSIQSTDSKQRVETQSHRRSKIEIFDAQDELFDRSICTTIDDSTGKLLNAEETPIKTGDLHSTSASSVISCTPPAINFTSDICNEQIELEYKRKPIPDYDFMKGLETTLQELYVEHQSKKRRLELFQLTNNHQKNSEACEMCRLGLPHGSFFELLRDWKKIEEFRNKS

[12] = molecular target: T6, TIN2 (human, UniProt Q9BSI4 1-451); test: ITC
T6 sequence (looked up): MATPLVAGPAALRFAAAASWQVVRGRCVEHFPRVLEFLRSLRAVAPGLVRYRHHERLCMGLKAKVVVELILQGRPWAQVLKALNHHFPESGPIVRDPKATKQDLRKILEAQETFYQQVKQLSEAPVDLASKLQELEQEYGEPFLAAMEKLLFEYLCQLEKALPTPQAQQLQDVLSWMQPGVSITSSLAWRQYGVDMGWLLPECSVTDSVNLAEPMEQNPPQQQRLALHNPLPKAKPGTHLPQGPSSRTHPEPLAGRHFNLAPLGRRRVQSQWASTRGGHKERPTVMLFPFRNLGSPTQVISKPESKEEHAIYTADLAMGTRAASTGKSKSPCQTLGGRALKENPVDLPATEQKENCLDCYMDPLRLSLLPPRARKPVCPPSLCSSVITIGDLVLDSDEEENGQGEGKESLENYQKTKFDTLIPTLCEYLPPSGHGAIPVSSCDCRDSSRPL

B1 was tested, and the “koff, fold slower than with free Poz1” value [1] was roughly 60 fold.

B2: GST-Rap1^446-512 (domain or fragment, S. pombe, UniProt Q96TL7 446-512, looked up)
chain: EKTLRETSFRSLDDMSLRKSNSDNIFVKPGEDLEIPLLSDYSDSENISEKSSDDEEAFEKQVTSSYS
B2: binds [2]; binds [3].

For B3, the “kon, fold against Tpz1-bound Poz1” value [1] was roughly 5 fold.

B4: GST-Tpz1^406-508 (domain or fragment, S. pombe, UniProt O14246 406-508, looked up)
chain: SSVISCTPPAINFTSDICNEQIELEYKRKPIPDYDFMKGLETTLQELYVEHQSKKRRLELFQLTNNHQKNSEACEMCRLGLPHGSFFELLRDWKKIEEFRNKS
B4: binds [2].

B5: Rap1^446-523 (domain or fragment, S. pombe, UniProt Q96TL7 446-523, looked up)
chain: EKTLRETSFRSLDDMSLRKSNSDNIFVKPGEDLEIPLLSDYSDSENISEKSSDDEEAFEKQVTSSYSSPIKVKSQGKS
For B5, the Kd [4] was 5.62 µM and 4.95 µM, the Kd [5] was 4.58 µM and the Kd [6] was 0.48 µM.

IFVKPGEDLEIPLLSDYSDSENISE (domain or fragment, S. pombe, UniProt Q96TL7 470-494, looked up) [Rap1^470-494]: binds [7].

B6: binds [8]; binds [9].

B7: Poz1 of the improved crystal construct Tpz1^475–508-Poz1-Rap1^467–496 (residues 73–86 replaced by GGA, 117–126 by GGGSA) (natural protein, S. pombe)
chain: MNEKIRSQSVLNTLETFFIKENHYDMQREESSIVNACLRYLGYSKSMCHEKMPIFMDIAFIEYCFNLSLDPSGGAQQILWEYSLISNALERLENIELERQNCMREGGGSALLNKETLNNEALKLYSCAKAGICRWMAFHFLEQEPIDHINFTKFLQDWGSHNEKEMEALQRLSKHKIRKRLIYVSQHKKKMPWSKFNSVLSRYIQCTKLQLEVFCDYDFKQREIVKMLTSNIN
B7: binds [10].

B8: Poz1ΔN (in S. pombe) (domain or fragment, UniProt O13852 29-249, looked up)
chain: EESSIVNACLRYLGYSKSMCHEKMPIFMDIAFIEYCFNLSLDPSSFQNLPITQTQPDSQQILWEYSLISNALERLENIELERQNCMREDGLVKYTNELLLNKETLNNEALKLYSCAKAGICRWMAFHFLEQEPIDHINFTKFLQDWGSHNEKEMEALQRLSKHKIRKRLIYVSQHKKKMPWSKFNSVLSRYIQCTKLQLEVFCDYDFKQREIVKMLTSNIN
B8 was tested, and the “fold decrease of the co-IP against wild-type cells” value [11] was roughly 3 fold.

B9: Poz1-L14R (in S. pombe) (natural protein, UniProt O13852 1-249, looked up)
chain: MNEKIRSQSVLNTRETFFIKENHYDMQREESSIVNACLRYLGYSKSMCHEKMPIFMDIAFIEYCFNLSLDPSSFQNLPITQTQPDSQQILWEYSLISNALERLENIELERQNCMREDGLVKYTNELLLNKETLNNEALKLYSCAKAGICRWMAFHFLEQEPIDHINFTKFLQDWGSHNEKEMEALQRLSKHKIRKRLIYVSQHKKKMPWSKFNSVLSRYIQCTKLQLEVFCDYDFKQREIVKMLTSNIN
For B9, the “fold decrease of the co-IP against wild-type cells” value [11] was roughly 3 fold.

Binder APADGEGGSELQPKNKRMTISRLVLEEDSQSTEPSAGLNSSQE (domain or fragment, human, UniProt Q15554 382-424, looked up) [TRF2^382-424] has a Kd [12] of 3.11 µM.
